From PMC8630228 come the findings set out here.

The assay deals with precursor δ-latroinsectotoxin (full-length precursor δ-LIT) (Latrodectus tredecimguttatus). As to the kind of experiment: cryo-EM, reference-free 2D classification of particles; full-length δ-LIT at 0.4 mg/ml on holey carbon grids; particles sorted into monomer, dimer, trimer and tetramer classes.

Where “and” joins values, the source holds several entries; their conditions need not be identical. Equal values may be shown once.

In the case of “precursor δ-latroinsectotoxin (full-length precursor δ-LIT) (natural protein)”, the percent of particles that are dimers came to 50%; the percent of particles that are tetramers is 2.5%; the percent of particles that are trimers turned out to be 2.5%; the stoichiometry N is 2 and 3 and 4.
